The record followed here is patent US9322042B2, “Thermostable cellulases, and mutants thereof, capable of hydrolyzing cellulose in ionic liquid” (The Regents of the University of California, priority 2009, dated 2016).

Holding throughout (format): biochemical
Assay [1] in a line: Activity assay on insoluble substrate: [C2mim][OAc] pretreated Avicel. The conditions noted are these: for decrease of the yield of sugars from hydrolysis of pretreated Avicel: 15% IL compared to 0% IL; for Sugars produced (sum of glucose, cellobiose and xylose): pAvicel. From the text: (§1) Corn stover refers to stalks, leaves and cobs that remain in the fields after the corn kernel harvest and is the largest quantity of biomass residue in the United States and as such is also a LC-biomass source for producing cellulosic ethanol in the United States. [C2mim][OAc] pretreated corn stover is used as a substrate to verify enzymatic efficiency on IL-pretreated biomass and a comparison made with [C2mim][OAc] pretreated Avicel. Avicel is a commercially available microcrystalline cellulose and a good model substrate for analysis. Similar assays are done in the presence of [C2mim][OAc] to simulate real biomass processing and saccharification scenarios. The assay products for the reactions in the presence of IL are detected by high performance anion exchange chromatography (HPAEC). The enzymatic hydrolysis reaction is carried out for 8 h for the T. viride cellulase and 15 h for the hyperthermophilic enzymes, taking into account the half-lives of these enzymes. To compare the amounts of total sugars formed between different reactions, the sum of glucose, xylose and cellobiose are calculated and reported as mmoles of sugars formed per min per mg of enzyme used (Table 7). A comparison of assay results between pretreated and untreated substrate indicates a 2-6 fold increase in hydrolysis products after pretreatment irrespective of the enzyme used, thereby confirming that IL pretreatment can increase the efficiency of hydrolysis of cellulose recovered from biomass. […] The catalytic efficiency of the fungal enzyme however, decreases with increasing IL concentration in the reaction mix. After normalizing for the reaction time and enzyme amounts, the amount of sugars formed is undetectable at 15% [C2mim][OAc]. […] The yield of sugars from Tma Cel5A hydrolysis of pretreated Avicel in the presence of 15% IL decreases by 43% compared to 0% IL, while the decrease is only 10% in the case of Pho EG on the same substrate under similar conditions (Table 7).
(§2) The hydrolysis reactions are performed under pH and temperatures for each enzyme as described herein. The reactions are run over a 14 h period with 5-10 mg of enzyme with 6% (w/v) enzyme loading in optimum buffer for each enzyme and run in duplicate. The reaction products are measured on a HPLC and HPAEC. The amounts of sugars detected are shown in mmoles and normalized with regards to amount of enzyme and time of reaction. Different reactions under each enzyme were run under exactly similar conditions.
(§3) [C2mim][OAc] (1 kg, as received, <0.2% moisture specified) is heated to 130° C. in a 1.5 L glass reaction vessel with mechanical stirring and 8% w/w (corn stover, 4.8% moisture) or 10% w/w (Avicel PH-101, 3% moisture). After around 3 h when the majority (corn stover) or all (Avicel) has dissolved, the dissolved corn stover or Avicel is allowed to cool to below 80° C. and is added to 2 L of 95% ethanol with rapid agitation to induce the precipitation of dissolved materials. The resulting slurry is filtered under pressure through polypropylene filter cloth and the solids redispersed in 2 L of additional ethanol. The filtration and redispersion steps are repeated twice to remove most residual ionic liquid and the filter cake dried under vacuum at 40° C. to yield a free-flowing powder product. Residual free ionic liquid remaining in the dried biomass is estimated to be less than 4% (w/w).
(§4) Enzymatic activity is measured on soluble polysaccharide substrates, CMC, using the 3,5-dinitrosalicylic acid (DNS) reducing sugar assay. Briefly, 2% CMC (w/v) in […] acetate buffer, (100 mM, pH 4.5 and pH 4.8 for T. viride and Tma, respectively, and 100 mM MES buffer, pH 6.4 for P. hori EG) is incubated at 80° C. for 30 min for Tma Cel5A and Pho enzymes and 37° C. and 10 min for T. viride. The solution is cooled down to 4° C. and […] of DNS solution is added. The reactants are incubated at 95° C. for 5 min and cooled down to room temperature before the absorbance is read at 540 nm. […]

Assay [2] in a line: Activity assay on insoluble substrate: Avicel.
From the text: as §1, §2
(§5) Enzymatic activity is measured on soluble polysaccharide substrates, CMC, using the 3,5-dinitrosalicylic acid (DNS) reducing sugar assay. Briefly, 2% CMC (w/v) in […] acetate buffer, (100 mM, pH 4.5 and pH 4.8 for T. viride and Tma, respectively, and 100 mM MES buffer, pH 6.4 for P. hori EG) is incubated at 80° C. for 30 min for Tma Cel5A and Pho enzymes and 37° C. and 10 min for T. viride. The solution is cooled down to 4° C. and […] of DNS solution is added. The reactants are incubated at 95° C. for 5 min and cooled down to room temperature before the absorbance is read at 540 nm. The reducing sugar concentration in the sample is calculated from its absorbance using the standard curve of D-glucose and cellobiose. For hydrolysis reactions in the presence of [C2mim][OAc], control reactions with CMC in the presence of IL but without no enzyme is subtracted from each measurement. The solid substrate (Avicel and corn stover) hydrolysis reactions are conducted at 80° C. for 15 h for the recombinant enzymes and at 37° C. for 8 h in the case of T. viride cellulose at the optimum pH for each enzyme. The reaction products are monitored using an Agilent 1200 HPLC equipped with Varian 380-LC Evaporative Light Scattering Detector. The total reaction volumes are […] and shaken at 900 rpm at temperature controlled shakers. Enzyme loadings are 0.4 mg per g of glucan and each data point is measured in triplicate. […]

Assay [3] can be described thus: Activity assay on insoluble substrate: corn stover.
From the text: as §1, §2, §5

Assay [4] in a line: Activity assay on insoluble substrate: [C2mim][OAc] pretreated corn stover. The note with it: pCorn stover.
From the text: as §1, §2, §3, §4

Assay [5] is described as follows: Enzyme stability: overnight pre-incubation in [C2mim][OAc] and half-life. The note with it: pre-incubation overnight (15 h) in 15% [C2mim][OAc].

B1: Tma Cel5A: wild-type cellulase of Thermatoga maritima strain MSB8 (Accession No. NP_229549); SEQ ID NO: 20 (protein, listed as Thermotoga maritima)
chain: MGVDPFERNKILGRGINIGNALEAPNEGDWGVVIKDEFFDIIKEAGFSHVRIPIRWSTHAYAFPPYKIMDRFFKRVDEVINGALKRGLAVVINIHHYEELMNDPEEHKERFLALWKQIADRYKDYPETLFFEILNEPHGNLTPEKWNELLEEALKVIRSIDKKHTIIIGTAEWGGISALEKLSVPKWEKNSIVTIHYYNPFEFTHQGAEWVEGSEKWLGRKWGSPDDQKHLIEEFNFIEEWSKKNKRPIYIGEFGAYRKADLESRIKWTSFVVREMEKRRWSWAYWEFCSGFGVYDTLRKTWNKDLLEALIGGDSIE
For B1, the “decrease of the yield of sugars from hydrolysis of pretreated Avicel” value in assay [1] came out at 43%. In addition, the “Sugars produced (sum of glucose, cellobiose and xylose)” value (from here on “Sugars produced”) is 6.6 ± 0.8 µmol/min/mg in assay [1] (0% [C2mim][OAc]); 6 ± 0.5 µmol/min/mg in assay [1] (5% [C2mim][OAc]); 5.7 ± 1^ μmoles min^−1 mg^−1 in assay [1] (10% [C2mim][OAc]); 4 ± 0.5 µmol/min/mg in assay [1] (15% [C2mim][OAc]); 1.1 ± 0.1 µmol/min/mg in assay [2] (0% [C2mim][OAc]); 1.0 ± 0.2 µmol/min/mg in assay [2] (5% [C2mim][OAc]). Moreover, the “Sugars produced” value amounted to 0.9 ± 0.1 µmol/min/mg in assay [2] (10% [C2mim][OAc]); 0.6 ± 0.1 µmol/min/mg in assay [2] (15% [C2mim][OAc]); 3 ± 0.9 µmol/min/mg in assay [3] (0% [C2mim][OAc]); 2 ± 0.3 µmol/min/mg in assay [3] (5% [C2mim][OAc]); 2.4 ± 0.8 µmol/min/mg in assay [3] (10% [C2mim][OAc]); 2.3 ± 0.5 µmol/min/mg in assay [3] (15% [C2mim][OAc]). For the same molecule, the “Sugars produced” value in assay [4] (0% [C2mim][OAc]) was 9 ± 1 µmol/min/mg; in assay [4] (5% [C2mim][OAc]), 8 ± 0.9 µmol/min/mg; in assay [4] (10% [C2mim][OAc]) it was 7 ± 1 µmol/min/mg; in assay [4] (15% [C2mim][OAc]) it was 5.9 ± 1^ μmoles min^−1 mg^−1. In addition, in assay [5], the “activity retained after pre-incubation” value was 44%.

B2: Pho EG: cellulase of Pyrococcus horikoshii strain OT3 (Accession No. NP_143072); SEQ ID NO: 21 (protein, listed as Pyrococcus horikoshii)
chain: MEGNTILKIVLICTILAGLFGQVVPVYAENTTYQTPTGIYYEVRGDTIYMINVTSGEETPIHLFGVNWFGFETPNHVVHGLWKRNWEDMLLQIKSLGFNAIRLPFCTESVKPGTQPIGIDYSKNPDLRGLDSLQIMEKIIKKAGDLGIFVLLDYHRIGCTHIEPLWYTEDFSEEDFINTWIEVAKRFGKYWNVIGADLKNEPHSVTSPPAAYTDGTGATWGMGNPATDWNLAAERIGKAILKVAPHWLIFVEGTQFTNPKTDSSYKWGYNAWWGGNLMAVKDYPVNLPRNKLVYSPHVYGPDVYNQPYFGPAKGFPDNLPDIWYHHFGYVKLELGYSVVIGEFGGKYGHGGDPRDVIWQNKLVDWMIENKFCDFFYWSWNPDSGDTGGILQDDWTTIWEDKYNNLKRLMDSCSKSSSSTQSVIRSTTPTKSNTSKKICGPAILIILAVFSLLLRRAPR
Regarding B2, the “decrease of the yield of sugars from hydrolysis of pretreated Avicel” value in assay [1] came out at 10%. In addition, the “Sugars produced” value is 3.2 ± 0.2 µmol/min/mg in assay [1] (0% [C2mim][OAc]); 3.3 ± 0.2 µmol/min/mg in assay [1] (5% [C2mim][OAc]); 3.1 ± 0.2 µmol/min/mg in assay [1] (10% [C2mim][OAc]); 2.9 ± 0.06 µmol/min/mg in assay [1] (15% [C2mim][OAc]); 0.54 ± 0.1 µmol/min/mg in assay [2] (0% [C2mim][OAc]); 0.5 ± 0.1 µmol/min/mg in assay [2] (5% [C2mim][OAc]). For the same molecule, the “Sugars produced” value in assay [2] (10% [C2mim][OAc]) is 0.52 ± 0.1 µmol/min/mg; in assay [2] (15% [C2mim][OAc]), 0.6 ± 0.08 µmol/min/mg; in assay [3] (0% [C2mim][OAc]), 0.58 ± 0.1 µmol/min/mg; in assay [3] (5% [C2mim][OAc]) it was 0.59 ± 0.1 µmol/min/mg; in assay [3] (10% [C2mim][OAc]), 0.57 ± 0.1 µmol/min/mg; in assay [3] (15% [C2mim][OAc]) it was 0.59 ± 0.1 µmol/min/mg. Also, the “Sugars produced” value in assay [4] (0% [C2mim][OAc]) stood at 2.14 ± 0.1 µmol/min/mg; in assay [4] (5% [C2mim][OAc]), 2.2 ± 0.14 µmol/min/mg; in assay [4] (10% [C2mim][OAc]) it was 2.0 ± 0.2 µmol/min/mg; in assay [4] (15% [C2mim][OAc]) it was 1.9 ± 0.1 µmol/min/mg. Further, the “activity retained after pre-incubation” value in assay [5] turned out to be 70%.
